Measurements taken from publication PMC8546571, “Methylation of PhoP by CheR Regulates Salmonella Virulence” (mBio, 2021).

How the values were obtained:
[1] = system: PhoP from cheR-overexpressing cells (methylated PhoP) (Salmonella enterica serovar Typhimurium 14028S); experiment: ITC; conditions: EMSA: 25 mM Tris-HCl pH 8.0, 50 mM KCl, 5 mM MgCl2, 0.5 mM EDTA, 10% glycerol, room temp 20 min, 1.6 pmol probe in 10 ul; ITC: 6.15 uM DNA into 0.6 uM PhoP …
[2] = system: PhoP from control Salmonella cells (Salmonella enterica serovar Typhimurium 14028S); experiment: ITC; conditions: EMSA: 25 mM Tris-HCl pH 8.0, 50 mM KCl, 5 mM MgCl2, 0.5 mM EDTA, 10% glycerol, room temp 20 min, 1.6 pmol probe in 10 ul; ITC: 6.15 uM DNA into 0.6 uM PhoP …
[3] = target: the molecule itself; experiment: cross-linking; purified His-tagged PhoP incubated with 1 mM DSS in 50 mM HEPES-Na pH 7.5, 150 mM NaCl, 10 mM MgCl2, 20% glycerol, 0.05% Tween 20, 25°C, 30 min; Western blot with anti-His antibody; monomer to dimer

Molecule | Kd [1] [nM] | Kd [2] [nM] | binding result [3]
phoP promoter DNA / PhoP box consensus (ITC) | 0.476 | 0.122 | –
wild-type PhoP (6×His-tagged, recombinant) (natural protein, PhoP, response regulator of the PhoP/PhoQ two-component system, S. Typhimurium strain 14028S; phoP PCR amplified from genomic DNA and cloned into pQE80; also called PhoP WT; source: E. coli BL21, purified (Ni-NTA); not shown: His6, C-terminal, kept) MMRVLVVEDNALLRHHLKVQLQDSGHQVDAAEDAREADYYLNEHLPDIAIVDLGLPDEDGLSLIRRWRSSDVSLPVLVLTAREGWQDKVEVLSSGADDYVTKPFHIEEVMARMQALMRRNSGLASQVINIPPFQVDLSRRELSVNEEVIKLTAFEYTIMETLIRNNGKVVSKDSLMLQLYPDAELRESHTIDVLMGRLRKKIQAQYPHDVITTVRGQGYLFELR | – | – | binds
PhoP purified from the bacteria with an endogenous level of cheR expression (natural protein, PhoP, S. Typhimurium strain 14028S, His-tagged and purified from Salmonella; also called PhoP from control cells; PhoP isolated from the wild-type strain; source: S. Typhimurium with an endogenous level of cheR expression, purified (His tag); not shown: His6, C-terminal, kept) MMRVLVVEDNALLRHHLKVQLQDSGHQVDAAEDAREADYYLNEHLPDIAIVDLGLPDEDGLSLIRRWRSSDVSLPVLVLTAREGWQDKVEVLSSGADDYVTKPFHIEEVMARMQALMRRNSGLASQVINIPPFQVDLSRRELSVNEEVIKLTAFEYTIMETLIRNNGKVVSKDSLMLQLYPDAELRESHTIDVLMGRLRKKIQAQYPHDVITTVRGQGYLFELR | – | – | binds
PhoP E8A variant (natural protein, PhoP, S. Typhimurium strain 14028S, with E8A; source: E. coli BL21, purified (Ni-NTA); not shown: His6, C-terminal, kept) MMRVLVVADNALLRHHLKVQLQDSGHQVDAAEDAREADYYLNEHLPDIAIVDLGLPDEDGLSLIRRWRSSDVSLPVLVLTAREGWQDKVEVLSSGADDYVTKPFHIEEVMARMQALMRRNSGLASQVINIPPFQVDLSRRELSVNEEVIKLTAFEYTIMETLIRNNGKVVSKDSLMLQLYPDAELRESHTIDVLMGRLRKKIQAQYPHDVITTVRGQGYLFELR | – | – | binds
PhoP E107A variant (natural protein, PhoP, S. Typhimurium strain 14028S, with E107A; source: E. coli BL21, purified (Ni-NTA); not shown: His6, C-terminal, kept) MMRVLVVEDNALLRHHLKVQLQDSGHQVDAAEDAREADYYLNEHLPDIAIVDLGLPDEDGLSLIRRWRSSDVSLPVLVLTAREGWQDKVEVLSSGADDYVTKPFHIAEVMARMQALMRRNSGLASQVINIPPFQVDLSRRELSVNEEVIKLTAFEYTIMETLIRNNGKVVSKDSLMLQLYPDAELRESHTIDVLMGRLRKKIQAQYPHDVITTVRGQGYLFELR | – | – | binds
PhoP D9A variant (natural protein, PhoP, S. Typhimurium strain 14028S, with D9A; source: E. coli BL21, purified (Ni-NTA); not shown: His6, C-terminal, kept) MMRVLVVEANALLRHHLKVQLQDSGHQVDAAEDAREADYYLNEHLPDIAIVDLGLPDEDGLSLIRRWRSSDVSLPVLVLTAREGWQDKVEVLSSGADDYVTKPFHIEEVMARMQALMRRNSGLASQVINIPPFQVDLSRRELSVNEEVIKLTAFEYTIMETLIRNNGKVVSKDSLMLQLYPDAELRESHTIDVLMGRLRKKIQAQYPHDVITTVRGQGYLFELR | – | – | binds
